B1: INTS3 (parent)
chain: DLNSKGKKREFRFHPIKETVVEEP

Variants of: B1
Assay: protein stability index of a GFP-peptide fusion (GPS, HEK-293T) (PSI 1-6); higher = more stable
Settings: c terminus: a fixed tail appended
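Note: lentivirally expressed fusions sorted by FACS into six bins by GFP to DsRed ratio, PSI derived from sequencing read proportions per bin multiplied by bin number.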

Row | Variant | protein stability index
1 | DLNSKGKKRELRFHPIKETVVEEP [F11L] | 3.84
2 | DLNSKGKKREERFHPIKETVVEEP [F11E] | 4.94
3 | DLNSKGKKREYRFHPIKETVVEEP [F11Y] | 3.89
4 | DLNSKGKKREPRFHPIKETVVEEP [F11P] | 4.39
5 | DLNSKGKKRERRFHPIKETVVEEP [F11R] | 4.28
6 | DLNSKGKKREKRFHPIKETVVEEP [F11K] | 4.46
7 | DLNSKGKKREDRFHPIKETVVEEP [F11D] | 4.88
8 | DLNSKGKKREIRFHPIKETVVEEP [F11I] | 3.55
9 | DLNSKGKKREHRFHPIKETVVEEP [F11H] | 4.31
10 | DLNSKGKKRENRFHPIKETVVEEP [F11N] | 4.13
11 | DLNSKGKKREWRFHPIKETVVEEP [F11W] | 2.1
12 | DLNSKGKKREVRFHPIKETVVEEP [F11V] | 4.02
13 | DLNSKGKKRESRFHPIKETVVEEP [F11S] | 4.39
14 | DLNSKGKKREARFHPIKETVVEEP [F11A] | 3.95
15 | DLNSKGKKRECRFHPIKETVVEEP [F11C] | 4.47
16 | DLNSKGKKREGRFHPIKETVVEEP [F11G] | 4.32
17 | DLNSKGKKRETRFHPIKETVVEEP [F11T] | 4.87
18 | DLNSKGKKREMRFHPIKETVVEEP [F11M] | 4.45
19 | DLNSKGKKRVFRFHPIKETVVEEP [E10V] | 1.3
20 | DLNSKGKKRAFRFHPIKETVVEEP [E10A] | 3.19
21 | DLNSKGKKRYFRFHPIKETVVEEP [E10Y] | 1.49
22 | DLNSKGKKRQFRFHPIKETVVEEP [E10Q] | 1.87
23 | DLNSKGKKRLFRFHPIKETVVEEP [E10L] | 1.94
24 | DLNSKGKKRSFRFHPIKETVVEEP [E10S] | 1.65

Row | Variant | protein stability index
25 | DLNSKGKKRNFRFHPIKETVVEEP [E10N] | 2.58
26 | DLNSKGKKRHFRFHPIKETVVEEP [E10H] | 2.72
27 | DLNSKGKKRTFRFHPIKETVVEEP [E10T] | 1.99
28 | DLNSKGKKRPFRFHPIKETVVEEP [E10P] | 2.55
29 | DLNSKGKKRKFRFHPIKETVVEEP [E10K] | 2.88
30 | DLNSKGKKRDFRFHPIKETVVEEP [E10D] | 2.7
31 | DLNSKGKKRWFRFHPIKETVVEEP [E10W] | 2.1
32 | DLNSKGKKRIFRFHPIKETVVEEP [E10I] | 1.78
33 | DLNSKGKKRCFRFHPIKETVVEEP [E10C] | 2.97
34 | DLNSKGKKRRFRFHPIKETVVEEP [E10R] | 1.96
35 | DLNSKGKKRMFRFHPIKETVVEEP [E10M] | 1.64
36 | DLNSKGKKRFFRFHPIKETVVEEP [E10F] | 1.76
37 | DLNSKGKKRGFRFHPIKETVVEEP [E10G] | 2
38 | DLNSKGKKREFVFHPIKETVVEEP [R12V] | 3.55
39 | DLNSKGKKREFMFHPIKETVVEEP [R12M] | 4.12
40 | DLNSKGKKREFQFHPIKETVVEEP [R12Q] | 4
41 | DLNSKGKKREFFFHPIKETVVEEP [R12F] | 3.13
42 | DLNSKGKKREFCFHPIKETVVEEP [R12C] | 3.99
43 | DLNSKGKKREFNFHPIKETVVEEP [R12N] | 3.74
44 | DLNSKGKKREFLFHPIKETVVEEP [R12L] | 3.57
45 | DLNSKGKKREFHFHPIKETVVEEP [R12H] | 4.2
46 | DLNSKGKKREFPFHPIKETVVEEP [R12P] | 4.07
47 | DLNSKGKKREFWFHPIKETVVEEP [R12W] | 3.02
48 | DLNSKGKKREFKFHPIKETVVEEP [R12K] | 4.11

Row | Variant | protein stability index
49 | DLNSKGKKREFDFHPIKETVVEEP [R12D] | 4.25
50 | DLNSKGKKREFTFHPIKETVVEEP [R12T] | 4.28
51 | DLNSKGKKREFSFHPIKETVVEEP [R12S] | 4.04
52 | DLNSKGKKREFEFHPIKETVVEEP [R12E] | 4.03
53 | DLNSKGKKREFAFHPIKETVVEEP [R12A] | 4.15
54 | DLNSKGKKREFIFHPIKETVVEEP [R12I] | 3.79
55 | DLNSKGKKREFYFHPIKETVVEEP [R12Y] | 4.12
56 | DLNSKGKKREFGFHPIKETVVEEP [R12G] | 4.24
57 | DLNSKGKKREFRPHPIKETVVEEP [F13P] | 4.48
58 | DLNSKGKKREFRLHPIKETVVEEP [F13L] | 4.78
59 | DLNSKGKKREFRYHPIKETVVEEP [F13Y] | 2.47
60 | DLNSKGKKREFRMHPIKETVVEEP [F13M] | 4.25
61 | DLNSKGKKREFRDHPIKETVVEEP [F13D] | 4.71
62 | DLNSKGKKREFRNHPIKETVVEEP [F13N] | 4.65
63 | DLNSKGKKREFRTHPIKETVVEEP [F13T] | 4.02
64 | DLNSKGKKREFRKHPIKETVVEEP [F13K] | 4.06
65 | DLNSKGKKREFREHPIKETVVEEP [F13E] | 4.75
66 | DLNSKGKKREFRRHPIKETVVEEP [F13R] | 3.99
67 | DLNSKGKKREFRSHPIKETVVEEP [F13S] | 4.27
68 | DLNSKGKKREFRIHPIKETVVEEP [F13I] | 3.78
69 | DLNSKGKKREFRAHPIKETVVEEP [F13A] | 4.44
70 | DLNSKGKKREFRWHPIKETVVEEP [F13W] | 3.72
71 | DLNSKGKKREFRQHPIKETVVEEP [F13Q] | 4.5
72 | DLNSKGKKREFRHHPIKETVVEEP [F13H] | 3.75

Row | Variant | protein stability index
73 | DLNSKGKKREFRCHPIKETVVEEP [F13C] | 3.94
74 | DLNSKGKKREFRGHPIKETVVEEP [F13G] | 4.31
75 | DLNSKGKKREFRVHPIKETVVEEP [F13V] | 4.47
76 | DLNSKYKKREFRFHPIKETVVEEP [G6Y] | 1.95
77 | DLNSKDKKREFRFHPIKETVVEEP [G6D] | 2.29
78 | DLNSKVKKREFRFHPIKETVVEEP [G6V] | 2.56
79 | DLNSKSKKREFRFHPIKETVVEEP [G6S] | 2.03
80 | DLNSKNKKREFRFHPIKETVVEEP [G6N] | 2.37
81 | DLNSKPKKREFRFHPIKETVVEEP [G6P] | 2.42
82 | DLNSKTKKREFRFHPIKETVVEEP [G6T] | 2.38
83 | DLNSKAKKREFRFHPIKETVVEEP [G6A] | 2.02
84 | DLNSKRKKREFRFHPIKETVVEEP [G6R] | 1.33
85 | DLNSKCKKREFRFHPIKETVVEEP [G6C] | 2.23
86 | DLNSKFKKREFRFHPIKETVVEEP [G6F] | 1.74
87 | DLNSKEKKREFRFHPIKETVVEEP [G6E] | 2.25
88 | DLNSKWKKREFRFHPIKETVVEEP [G6W] | 2.12
89 | DLNSKQKKREFRFHPIKETVVEEP [G6Q] | 2.3
90 | DLNSKIKKREFRFHPIKETVVEEP [G6I] | 1.59
91 | DLNSKKKKREFRFHPIKETVVEEP [G6K] | 1.74
92 | DLNSKHKKREFRFHPIKETVVEEP [G6H] | 2.74
93 | DLNSKMKKREFRFHPIKETVVEEP [G6M] | 2.4
94 | DLNSKLKKREFRFHPIKETVVEEP [G6L] | 1.52
